This series has as its target mLDH, mammalian lactate dehydrogenase (bovine) (UniProt P19858). Briefly: ELONA. As to conditions: ELONA: 500 ng immobilized protein; aptamer in HMCKN (2 mM HEPES, 0.2 mM MgCl2, 0.2 mM CaCl2, 0.2 mM KCl, 15 mM NaCl, pH 7.4), 2 h, room temperature; washes ….

Take “GCCTGTTGTGAGCCTCCTAACCAGCTCGTAGAAAAAAAAAGATATTGCTTCAATTATCTCCTCGCGTTCAATTAACCCAGCATGCTTATTCTTGTCTCCC [rLDH 4]”: the binding signal is 0.053 OD450.
